Assay results from US20160237160A1, “ANTI-TWEAKR ANTIBODIES AND USES THEREOF” (BAYER PHARMA AKTIENGESELLSCHAFT, priority 2013, published 2016).

Molecular target: TWEAKR (TNFRSF12A, FN14), human, on tumor cell lines (human) (UniProt Q9NP84)
Experiment: cell-based or functional assay

- % Inhibition of proliferation, 786-O cells, 96h, 100 ng/ml: 12%
- % Inhibition of proliferation, A253 cells, 72h, 300 ng/ml: > 100%
- % Inhibition of proliferation, HT-29 cells, 24h, 300 ng/ml: 98%
- % Inhibition of proliferation, LOVO cells, 72h, 100 ng/ml: 53%
- % Inhibition of proliferation, NCI-H1975 cells, 72h, 100 ng/ml: 56%
- % Inhibition of proliferation, SW480 cells, 72h, 100 ng/ml: 0%
- Fold induction of Caspase 3/7, 786-O cells, 300 ng/ml: 1.45 fold
- Fold induction of Caspase 3/7, A253 cells, 300 ng/ml: 1.53 fold
- Fold induction of Caspase 3/7, HT-29 cells, 300 ng/ml: 2.31 fold
- Fold induction of Caspase 3/7, NCI-H322 cells, 100 ng/ml: 1.39 fold
- Fold induction of Caspase 3/7, WiDr cells, 300 ng/ml: 1.22 fold
Substance: recombinant human TWEAK (R&D, #1090-TW-025/CF) (ligand)
